Source: article PMC7954794, “Protein context shapes the specificity of SH3 domain-mediated interactions in vivo” (Nature Communications, 2021)

System: Abp1 PPIs
Assay: DHFR-PCA of Abp1 SH3-swapped baits (Fig. 2B-D, S2C, S2F)
Type: cell-based, Saccharomyces cerevisiae
Conditions: Fig2B; bait ABP1, label = prey; Replicates 4
Outline: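 Yeast DHFR-PCA in which Abp1 baits, carrying their SH3 replaced by CRISPR–Cas9 with one of 27 yeast SH3s or human CTTN, HCLS1 or DBNL SH3s, were mated against 575 SH3-associated DHFR F[3] preys plus 40 negative controls. Four tests were run per PPI. Diploids were selected twice (48 h, 30 °C), then grown 4 days on PCA selection media.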

B1: YBL039C (protein, UniProt P28274 1-579, looked up)
CTP synthase 1: MKYVVVSGGVISGIGKGVLASSTGMLMKTLGLKVTSIKIDPYMNIDAGTMSPLEHGECFVLDDGGETDLDLGNYERYLGVTLTKDHNITTGKIYSHVIAKERKGDYLGKTVQIVPHLTNAIQDWIERVAKIPVDDTGMEPDVCIIELGGTVGDIESAPFVEALRQFQFKVGKENFALIHVSLVPVIHGEQKTKPTQAAIKGLRSLGLVPDMIACRCSETLDKPTIDKIAMFCHVGPEQVVNVHDVNSTYHVPLLLLEQKMIDYLHARLKLDEISLTEEEKQRGLELLSKWKATTGNFDESMETVKIALVGKYTNLKDSYLSVIKALEHSSMKCRRKLDIKWVEATDLEPEAQESNKTKFHEAWNMVSTADGILIPGGFGVRGTEGMVLAARWARENHIPFLGVCLGLQIATIEFTRSVLGRKDSHSAEFYPDIDEKNHVVVFMPEIDKETMGGSMRLGLRPTFFQNETEWSQIKKLYGDVSEVHERHRHRYEINPKMVDELENNGLIFVGKDDTGKRCEILELKNHPYYIATQYHPEYTSKVLDPSKPFLGLVAASAGILQDVIEGKYDLEAGENKFNF
- medrep (log2 median colony size normalized to plate background): 3.877
